Data: the supplement of paper PMC10065799, “High-throughput profiling of sequence recognition by tyrosine kinases and SH2 domains using bacterial peptide display” (eLife, 2023)

Columns and labels:
Hck = Hck (UniProt P08631); assay: phosphorylation enrichment, bacterial display (enrichment ratio); higher = better substrate or ligand; peptides without Tyr show the background
AncSZ = assay: as above
c-Abl (mouse) = assay: as above
FGFR3 = FGFR3 (UniProt P22607); assay: as above
Fer (mouse) = assay: as above
Fyn = Fyn (UniProt P06241); assay: as above
Jak2 = Jak2 (UniProt O60674); assay: as above
MERTK = MERTK (UniProt Q12866); assay: as above
FGFR1 = FGFR1 (UniProt P11362); assay: as above
EPHB1 = EPHB1 (UniProt P54762); assay: as above
c-Src = assay: as above
EPHB2 = EPHB2 (UniProt P29323); assay: as above
Fes = Fes (UniProt P07332); assay: as above
SHP2-C SH2 = assay: SH2 binding enrichment of the phosphorylated peptide, bacterial display (enrichment ratio); higher = better substrate or ligand; peptides without Tyr show the background
Grb2 SH2 = Grb2 SH2 (UniProt P62993); assay: as above
c-Src SH2 = assay: as above
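For SH2 binding enrichment of the phosphorylated peptide, bacterial display in this document: peptide library displayed on the E. coli surface as eCPX fusions, selected cells deep-sequenced, score is each peptide's frequency after selection divided by its frequency in the input.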
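For phosphorylation enrichment, bacterial display in this document: 11-residue human phosphosite peptides and single-mutation variants displayed on the E. coli surface, counted by deep sequencing, each peptide's frequency after selection divided by its frequency in the unselected input library; frequency after pTyr selection over input frequency; kinase dosed for 20-30% of maximal phosphorylation in three min.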

FGFR1, sequence (P11362 whole entry, looked up): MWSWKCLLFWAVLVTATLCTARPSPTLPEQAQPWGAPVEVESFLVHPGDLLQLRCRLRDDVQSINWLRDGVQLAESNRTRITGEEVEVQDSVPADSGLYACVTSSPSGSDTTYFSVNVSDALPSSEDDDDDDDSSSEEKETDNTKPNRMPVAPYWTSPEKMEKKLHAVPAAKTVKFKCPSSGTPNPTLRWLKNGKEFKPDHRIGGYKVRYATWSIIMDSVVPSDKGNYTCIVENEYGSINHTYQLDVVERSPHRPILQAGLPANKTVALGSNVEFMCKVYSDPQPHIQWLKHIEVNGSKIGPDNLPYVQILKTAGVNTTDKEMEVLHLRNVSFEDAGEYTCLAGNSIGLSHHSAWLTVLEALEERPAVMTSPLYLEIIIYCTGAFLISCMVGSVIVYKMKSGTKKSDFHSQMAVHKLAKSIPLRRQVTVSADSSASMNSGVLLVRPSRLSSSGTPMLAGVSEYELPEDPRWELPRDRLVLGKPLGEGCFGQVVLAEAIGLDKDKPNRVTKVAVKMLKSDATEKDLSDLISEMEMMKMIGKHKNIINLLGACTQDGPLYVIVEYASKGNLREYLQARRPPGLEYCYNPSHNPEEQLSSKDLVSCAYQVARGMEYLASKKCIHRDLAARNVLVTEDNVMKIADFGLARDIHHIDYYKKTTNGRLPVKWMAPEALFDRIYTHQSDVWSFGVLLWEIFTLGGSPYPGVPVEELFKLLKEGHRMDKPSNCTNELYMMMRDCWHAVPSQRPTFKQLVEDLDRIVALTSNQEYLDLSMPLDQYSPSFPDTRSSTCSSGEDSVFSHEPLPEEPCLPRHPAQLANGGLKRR
Hck, sequence (P08631 whole entry, looked up): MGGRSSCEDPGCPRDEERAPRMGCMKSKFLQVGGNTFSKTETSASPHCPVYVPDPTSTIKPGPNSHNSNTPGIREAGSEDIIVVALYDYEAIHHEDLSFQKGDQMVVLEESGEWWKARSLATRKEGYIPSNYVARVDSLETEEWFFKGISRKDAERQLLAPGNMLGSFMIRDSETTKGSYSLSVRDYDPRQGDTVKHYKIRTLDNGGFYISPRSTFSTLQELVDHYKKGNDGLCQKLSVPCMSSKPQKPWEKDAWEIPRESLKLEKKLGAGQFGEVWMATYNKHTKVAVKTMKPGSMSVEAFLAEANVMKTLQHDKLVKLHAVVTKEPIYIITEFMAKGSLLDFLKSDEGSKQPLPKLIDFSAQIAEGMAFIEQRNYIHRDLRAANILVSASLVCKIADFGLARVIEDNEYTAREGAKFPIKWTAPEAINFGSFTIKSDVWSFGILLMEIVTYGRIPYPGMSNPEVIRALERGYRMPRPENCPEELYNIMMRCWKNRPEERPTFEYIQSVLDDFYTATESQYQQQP
Fyn, sequence (P06241 whole entry, looked up): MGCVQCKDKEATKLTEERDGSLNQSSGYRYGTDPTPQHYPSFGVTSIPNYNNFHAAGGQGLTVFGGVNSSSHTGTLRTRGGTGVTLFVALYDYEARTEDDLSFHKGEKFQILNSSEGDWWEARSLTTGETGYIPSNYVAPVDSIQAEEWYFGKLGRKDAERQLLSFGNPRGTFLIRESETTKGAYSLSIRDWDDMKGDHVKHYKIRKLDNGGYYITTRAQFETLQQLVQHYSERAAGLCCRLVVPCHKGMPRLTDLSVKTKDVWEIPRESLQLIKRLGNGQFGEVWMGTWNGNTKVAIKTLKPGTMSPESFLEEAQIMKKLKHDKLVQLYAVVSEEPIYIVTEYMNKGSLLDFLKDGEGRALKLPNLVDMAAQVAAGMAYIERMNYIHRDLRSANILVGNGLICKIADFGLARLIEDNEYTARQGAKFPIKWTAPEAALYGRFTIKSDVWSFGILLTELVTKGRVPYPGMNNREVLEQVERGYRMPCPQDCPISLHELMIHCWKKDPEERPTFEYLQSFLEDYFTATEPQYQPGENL
FGFR3, sequence (P22607 whole entry, looked up): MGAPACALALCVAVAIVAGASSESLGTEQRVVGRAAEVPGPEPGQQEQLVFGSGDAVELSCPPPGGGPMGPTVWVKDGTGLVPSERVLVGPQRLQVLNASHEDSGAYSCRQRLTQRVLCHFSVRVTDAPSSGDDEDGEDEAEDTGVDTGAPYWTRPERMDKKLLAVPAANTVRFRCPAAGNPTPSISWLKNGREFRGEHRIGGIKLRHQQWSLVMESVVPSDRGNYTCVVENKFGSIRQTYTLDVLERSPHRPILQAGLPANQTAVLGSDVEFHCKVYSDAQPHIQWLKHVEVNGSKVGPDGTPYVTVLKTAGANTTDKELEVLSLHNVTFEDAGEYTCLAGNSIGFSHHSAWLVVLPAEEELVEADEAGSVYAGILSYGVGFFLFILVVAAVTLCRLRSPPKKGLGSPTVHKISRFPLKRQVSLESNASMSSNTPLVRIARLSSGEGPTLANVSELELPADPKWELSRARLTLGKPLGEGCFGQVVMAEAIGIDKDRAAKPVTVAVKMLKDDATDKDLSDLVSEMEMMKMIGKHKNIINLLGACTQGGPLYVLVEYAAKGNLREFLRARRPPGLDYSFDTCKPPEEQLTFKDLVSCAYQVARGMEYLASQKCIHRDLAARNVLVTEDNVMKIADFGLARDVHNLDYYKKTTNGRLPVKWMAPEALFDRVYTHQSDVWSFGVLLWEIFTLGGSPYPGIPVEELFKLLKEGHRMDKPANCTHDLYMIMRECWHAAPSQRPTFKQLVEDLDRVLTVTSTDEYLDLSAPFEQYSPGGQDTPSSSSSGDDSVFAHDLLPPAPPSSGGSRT
EPHB2, sequence (P29323 whole entry, looked up): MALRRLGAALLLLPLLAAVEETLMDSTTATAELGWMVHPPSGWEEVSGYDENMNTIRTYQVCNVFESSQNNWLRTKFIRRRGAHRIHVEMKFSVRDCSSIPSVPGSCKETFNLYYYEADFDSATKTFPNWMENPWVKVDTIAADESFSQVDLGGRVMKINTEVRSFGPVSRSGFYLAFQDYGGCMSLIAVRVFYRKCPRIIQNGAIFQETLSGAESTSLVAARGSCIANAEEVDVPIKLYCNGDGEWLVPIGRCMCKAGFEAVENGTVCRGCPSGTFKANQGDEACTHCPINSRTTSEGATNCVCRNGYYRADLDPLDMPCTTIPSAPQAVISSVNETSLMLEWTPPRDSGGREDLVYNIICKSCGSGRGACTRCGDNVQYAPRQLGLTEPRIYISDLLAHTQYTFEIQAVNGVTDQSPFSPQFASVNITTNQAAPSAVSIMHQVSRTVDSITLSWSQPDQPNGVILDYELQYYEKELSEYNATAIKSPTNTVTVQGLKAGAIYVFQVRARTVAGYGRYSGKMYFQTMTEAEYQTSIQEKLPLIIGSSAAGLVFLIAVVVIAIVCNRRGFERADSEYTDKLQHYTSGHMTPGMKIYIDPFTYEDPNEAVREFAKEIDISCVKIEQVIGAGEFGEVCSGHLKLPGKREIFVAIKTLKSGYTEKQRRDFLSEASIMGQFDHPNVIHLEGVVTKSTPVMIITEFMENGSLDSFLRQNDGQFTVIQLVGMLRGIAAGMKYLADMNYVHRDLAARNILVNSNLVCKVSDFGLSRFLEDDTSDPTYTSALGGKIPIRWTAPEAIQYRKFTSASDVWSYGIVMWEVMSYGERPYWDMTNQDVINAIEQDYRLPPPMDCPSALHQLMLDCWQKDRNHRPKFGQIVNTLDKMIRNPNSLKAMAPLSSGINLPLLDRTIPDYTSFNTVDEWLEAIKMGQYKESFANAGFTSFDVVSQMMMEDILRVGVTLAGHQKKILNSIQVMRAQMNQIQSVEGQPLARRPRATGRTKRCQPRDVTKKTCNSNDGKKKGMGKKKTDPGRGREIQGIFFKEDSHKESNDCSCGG
Grb2 SH2, sequence (P62993 whole entry, looked up): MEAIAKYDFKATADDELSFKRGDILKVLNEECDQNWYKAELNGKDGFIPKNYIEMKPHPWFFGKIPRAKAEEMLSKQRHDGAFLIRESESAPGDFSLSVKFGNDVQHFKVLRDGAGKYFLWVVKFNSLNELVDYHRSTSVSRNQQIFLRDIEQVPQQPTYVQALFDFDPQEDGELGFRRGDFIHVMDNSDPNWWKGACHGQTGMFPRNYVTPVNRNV
MERTK, sequence (Q12866 whole entry, looked up): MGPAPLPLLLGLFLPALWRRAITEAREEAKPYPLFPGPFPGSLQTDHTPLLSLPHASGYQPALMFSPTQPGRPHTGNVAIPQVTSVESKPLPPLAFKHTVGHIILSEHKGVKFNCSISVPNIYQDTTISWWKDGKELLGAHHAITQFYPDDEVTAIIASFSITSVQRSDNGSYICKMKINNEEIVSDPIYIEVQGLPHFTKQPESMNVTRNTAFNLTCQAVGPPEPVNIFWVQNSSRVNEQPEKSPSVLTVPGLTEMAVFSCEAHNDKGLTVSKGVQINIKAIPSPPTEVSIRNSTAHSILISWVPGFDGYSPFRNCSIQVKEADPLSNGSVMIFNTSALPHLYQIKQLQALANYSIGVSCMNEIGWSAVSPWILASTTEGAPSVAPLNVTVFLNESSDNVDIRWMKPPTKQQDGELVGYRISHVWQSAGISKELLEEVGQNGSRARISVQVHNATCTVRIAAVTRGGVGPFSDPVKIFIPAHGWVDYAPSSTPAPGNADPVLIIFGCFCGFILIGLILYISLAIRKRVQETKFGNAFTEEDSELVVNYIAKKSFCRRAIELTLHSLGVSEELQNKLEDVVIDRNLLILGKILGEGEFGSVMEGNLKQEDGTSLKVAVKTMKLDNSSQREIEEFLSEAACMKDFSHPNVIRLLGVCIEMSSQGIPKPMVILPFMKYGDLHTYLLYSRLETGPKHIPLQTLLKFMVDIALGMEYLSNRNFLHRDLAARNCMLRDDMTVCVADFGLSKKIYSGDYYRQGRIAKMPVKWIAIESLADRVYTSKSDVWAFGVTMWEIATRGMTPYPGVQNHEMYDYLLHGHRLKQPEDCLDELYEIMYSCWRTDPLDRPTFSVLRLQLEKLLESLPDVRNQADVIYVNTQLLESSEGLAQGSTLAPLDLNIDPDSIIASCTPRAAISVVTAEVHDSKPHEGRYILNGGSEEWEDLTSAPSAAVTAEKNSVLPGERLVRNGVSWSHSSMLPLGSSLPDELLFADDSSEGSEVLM

Row | Sequence | phosphorylation enrichment (Hck) | phosphorylation enrichment (AncSZ) | phosphorylation enrichment (c-Abl (mouse)) | phosphorylation enrichment (FGFR3) | phosphorylation enrichment (Fer (mouse)) | phosphorylation enrichment (Fyn) | phosphorylation enrichment (Jak2) | phosphorylation enrichment (MERTK) | phosphorylation enrichment (FGFR1) | phosphorylation enrichment (EPHB1) | phosphorylation enrichment (c-Src) | phosphorylation enrichment (EPHB2) | phosphorylation enrichment (Fes) | SH2 binding enrichment (SHP2-C SH2) | SH2 binding enrichment (Grb2 SH2) | SH2 binding enrichment (c-Src SH2)
1 | HLLRIYFDITD [MMP27_Y307_W304L_YF] | 0.733 | 1.99 | 1.87 | 1.68 | 0.846 | 0.491 | 2.05 | 0.568 | 0.874 | 1.53 | 0.791 | 0.891 | 2.46 | 0.464 | 0.85 | 0.536
2 | DSMQSYDLDFP [UNC13B_Y243_YF] | 0.461 | 1.15 | 0.623 | 0.646 | 0.541 | 0.48 | 1.03 | 0.453 | 0.537 | 0.642 | 0.569 | 0.546 | 1.02 | 0.686 | 0.782 | 0.605
3 | RFLRGYRQHAY [HLA-A_Y137_D140H] | 1.06 | 1.1 | 1.31 | 0.849 | 1.02 | 0.654 | 0.979 | 1.33 | 0.623 | 0.787 | 1.11 | 0.879 | 1.04 | 0.57 | 0.539 | 0.424
4 | TESALYGCTIL [MAP3K21_Y724_V728I] | 4.18 | 1.17 | 1.59 | 1.19 | 4.72 | 6 | 1.65 | 1.57 | 0.5 | 0.68 | 6.06 | 0.989 | 1.62 | 0.625 | 1 | 0.46
5 | FTRNYYVQAVL [CYBA_Y88_R90Q] | 0.521 | 1.01 | 0.813 | 2.67 | 0.512 | 0.486 | 1.06 | 0.887 | 1.59 | 0.66 | 0.538 | 0.558 | 0.981 | 0.834 | 0.839 | 0.591
6 | DEQKKYYNAMK [SCN5A_Y1494_E1489D] | 0.458 | 0.874 | 0.594 | 0.508 | 0.35 | 0.442 | 0.531 | 0.572 | 0.575 | 0.613 | 0.39 | 0.543 | 0.772 | 0.711 | 1.01 | 0.621
7 | KLQQWYREPRS [GPI_Y17_H20P] | 0.493 | 0.85 | 0.615 | 0.491 | 0.385 | 0.446 | 0.562 | 0.463 | 0.36 | 0.44 | 0.507 | 0.712 | 0.708 | 0.799 | 0.999 | 0.5
8 | TINPIHEHVGF [CHN1_Y143_Y143H_YF] | 0.299 | 0.433 | 0.477 | 0.441 | 0.397 | 0.335 | 0.429 | 0.328 | 0.393 | 0.321 | 0.339 | 0.346 | 0.619 | 0.757 | 0.813 | 0.519
